The values below come from PMC2213499 (The Journal of Experimental Medicine, 2000).

This test has as its target Complement C1q (human, UniProt P02745 23-245; P02746 28-253; P02747 29-245). Nature of the test: ELISA. Background: In an ELISA, binding on a coated surface is turned into a signal by an enzyme label.

Complement C1q, sequence (P02745 23-245, chain 1 of 3): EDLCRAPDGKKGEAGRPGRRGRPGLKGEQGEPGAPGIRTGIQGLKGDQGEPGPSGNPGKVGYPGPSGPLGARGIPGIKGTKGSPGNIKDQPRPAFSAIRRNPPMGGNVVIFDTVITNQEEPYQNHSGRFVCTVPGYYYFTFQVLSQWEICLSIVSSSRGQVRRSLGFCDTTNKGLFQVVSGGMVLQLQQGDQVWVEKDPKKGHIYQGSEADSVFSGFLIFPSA
Complement C1q, sequence (P02746 28-253, chain 2 of 3): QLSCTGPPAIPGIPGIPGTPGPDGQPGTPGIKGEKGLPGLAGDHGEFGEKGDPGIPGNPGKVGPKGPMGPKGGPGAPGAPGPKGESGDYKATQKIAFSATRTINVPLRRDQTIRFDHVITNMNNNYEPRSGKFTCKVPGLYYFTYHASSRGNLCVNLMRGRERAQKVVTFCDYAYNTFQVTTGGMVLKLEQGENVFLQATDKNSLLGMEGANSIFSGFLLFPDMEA
Complement C1q, sequence (P02747 29-245, chain 3 of 3): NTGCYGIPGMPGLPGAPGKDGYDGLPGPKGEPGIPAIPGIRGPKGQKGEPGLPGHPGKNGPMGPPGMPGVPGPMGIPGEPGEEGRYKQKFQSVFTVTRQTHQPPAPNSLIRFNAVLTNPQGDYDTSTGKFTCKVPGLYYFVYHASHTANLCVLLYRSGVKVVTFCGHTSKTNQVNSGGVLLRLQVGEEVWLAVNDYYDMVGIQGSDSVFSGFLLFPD

B1: Recombinant soluble complement receptor 1 (sCR1) (domain or fragment)
chain: not shown
modifications: 125I in the radioligand assays with immobilised MBL; unlabelled elsewhere
In the case of B1, the binding result was “binds”.
